Data on eight molecules can be found in patent US20190382481A1 (Janssen / Centocor, published 2019).

The target in one assay is T1, Cyno CD33 full length (cynomolgus monkey).
T1 construct: Stably expressed on HEK293F cells by lentiviral transduction; also called Cyno CD33 (on HEK293F cells)
Description: flow cytometry on HEK293F cells expressing cyno CD33. The protocol: (§1) The purified antibodies were assessed for binding to stably transfected HEK293F cells expressing human CD33 or cyno CD33 (generation described above) along with the parental HEK293F as negative control. Cells were harvested from tissue culture flasks using non-enzymatic dissociation buffer (Thermo Scientific). The flasks were rinsed twice with PBS and dissociation buffer was added to the flask, and the flask was incubated for 10 minutes at 37° C. until the cells became non-adherent. The cells were centrifuged at 300 g for 5 minutes and resuspended at 1.0×10⁶ cells/ml in staining buffer (Becton Dickinson; Franklin Lakes, N.J.). 50,000 cells/well of each cell type was plated in 50 μl of staining buffer in round bottom plates (Becton Dickinson). 50 μl of 2× concentration test mAb or isotype control was added at 3 dilutions and zero (120 nM, 12 nM, and 1.2 nM and 0 nM), and the resultant solution was incubated 30 min at 4° C. 100 μl staining buffer was added to all wells of each plate, the plates were spun at 300 g for 5 min, the buffer was removed, 200 μl staining buffer was added to all wells of each plate, the plates were spun at 300 g for 5 min, and the buffer was removed. 50 μl of 2 μg/ml of Goat-anti-human Fc AF647 secondary antibody (Jackson Immunoresearch; West Grove, Pa.) was added to all wells of the plates, and the plates were incubated for 30 min at 4° C. 100 μl staining buffer was added to all wells of the plates, the plates were spun at 300 g for 5 min, and the buffer was removed. 200 μl running buffer (running buffer is Staining buffer, 1 mM EDTA, 0.1% Pluronic Acid) was added to all wells of the plates, the plates were spun at 300 g for 5 min, and the buffer was removed. 30 ul running buffer containing Sytox Green live/dead dye (ThermoFisher) was added to all wells with cells and the plates were read on an iQue IntelliCyt flow cytometer. Cells were gated on forward vs. side scatter to eliminate debris, then on singlets and then on live cells which excluded the Sytox stain. Antibody binding was assessed by the mean fluorescence intensity in the AF647 channel. […]

Another assay has as its target T2, Human CD33 full length (human, UniProt P20138 18-364).
T2 construct: Stably expressed on HEK293F cells by lentiviral transduction; also called Human CD33 (on HEK293F cells)
Description: flow cytometry on HEK293F cells expressing human CD33. The protocol:
as §1

Another assay has as its target human CD33 (human, UniProt P20138 18-364). Description: cell-based or functional assay.

T2 sequence (P20138 18-364 limits assumed): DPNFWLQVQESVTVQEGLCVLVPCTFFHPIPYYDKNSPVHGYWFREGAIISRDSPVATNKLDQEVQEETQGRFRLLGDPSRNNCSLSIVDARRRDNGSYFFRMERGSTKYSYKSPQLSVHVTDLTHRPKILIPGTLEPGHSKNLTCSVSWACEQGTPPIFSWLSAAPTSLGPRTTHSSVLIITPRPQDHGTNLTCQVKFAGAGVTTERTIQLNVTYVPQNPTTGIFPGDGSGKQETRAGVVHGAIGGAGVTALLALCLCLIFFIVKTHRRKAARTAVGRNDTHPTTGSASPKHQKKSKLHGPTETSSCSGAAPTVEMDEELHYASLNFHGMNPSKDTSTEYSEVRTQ
human CD33, sequence (P20138 18-364 limits assumed): as above
T1 sequence (chain, as listed by the source limits assumed): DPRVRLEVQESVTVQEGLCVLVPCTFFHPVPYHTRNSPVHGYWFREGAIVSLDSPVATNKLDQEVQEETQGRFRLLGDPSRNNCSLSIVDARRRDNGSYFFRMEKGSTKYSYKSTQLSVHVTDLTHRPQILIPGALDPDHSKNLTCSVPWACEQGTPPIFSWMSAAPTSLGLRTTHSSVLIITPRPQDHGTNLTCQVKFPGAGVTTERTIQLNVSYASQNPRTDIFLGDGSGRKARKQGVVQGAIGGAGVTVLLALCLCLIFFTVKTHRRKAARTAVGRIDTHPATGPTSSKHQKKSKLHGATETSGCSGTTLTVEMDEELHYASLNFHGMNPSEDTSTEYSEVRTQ

B1: C33B914 (antibody, V domains shown)
VH: QVQLVESGGGVVQPGRSLRLSCAASGFTFSYYGMHWVRQAPDKGLEWVAVIWFDGNNKYYADSVKGRFTISRDNSKNTLYLQMNSLRAEDTAVYYCARDRELLFDYWGQGTLVTVSS
VL: SYELTQPPSVSVSPGQTASITCSGDELGDMYACWYQQKPGQSPLVVIYQDSKRPSGIPERFSGSNSGNTATLTISGTQAMDEAAYYCQTWDTRIAVFGGGTNLTVLG
notes: OMNIMouse mAb; HC C33H254, LC C33L120 (same IDs as C33B906); also called C33F552
For B1, in the assay with Cyno CD33 full length, the “mean fluorescence intensity at 0.6 nM mAb” value stood at 22100 MFI, the “mean fluorescence intensity at 6 nM mAb” value was determined as 33400 MFI and the “mean fluorescence intensity at 60 nM mAb” value was found to be 45000 MFI. Further, in the assay with Human CD33 full length, the “mean fluorescence intensity at 0.6 nM mAb” value was determined as 153000 MFI, the “mean fluorescence intensity at 6 nM mAb” value stood at 315000 MFI and the “mean fluorescence intensity at 60 nM mAb” value was 304000 MFI.

B2: C33B909 (antibody, V domains shown)
VH: EVQLVESGGGLVQPGRSLRLSCVASGFTFDDYAIHWVRQAPGKGLEWVSGLSWNGGNIGYADSVKGRFTISRDNAKNSLYLQMNSLKTEDTAFYYCTKDTPYGDYFDYWGQGTLVTVSS
VL: DIQMTQSPSSVWASVGDRVTITCRASQGISSWLAWYQQQPGKAPNLLIYRSSSLQSGVPSRFSGSGSGTDFTLTISSLQPEDFATYYCQQDNSFPYTFGQGTKLEIKR
notes: OMNIMouse mAb; HC C33H249, LC C33L115 (same IDs as C33B901); the campaign was cloned into both IgG1 and IgG4 PAA
As for B2, in the assay with Cyno CD33 full length, the “mean fluorescence intensity at 0.6 nM mAb” value was 116 MFI, the “mean fluorescence intensity at 6 nM mAb” value was determined as 135 MFI and the “mean fluorescence intensity at 60 nM mAb” value was 180 MFI. In the assay with Human CD33 full length, the “mean fluorescence intensity at 0.6 nM mAb” value amounted to 154 MFI, the “mean fluorescence intensity at 6 nM mAb” value stood at 170 MFI and the “mean fluorescence intensity at 60 nM mAb” value came out at 176 MFI.

B3: C33B910 (antibody, V domains shown)
VH: EVQLVESGGGLVQPGRSLRLSCAGSGFTFDDYAIHWVRQAPGKGLEWVSGLSWNGGNIGYADSVKGRFTISRDNAKNSLYLQLNSLKTEDTAFYYCAKDSPYGDYFDYWGQGTLVTVSS
VL: DIQMTQSPSSEWASVGDRVTITCRASQGISSWLAWYQQKPGKAPKLLIYGASSWQSGVPSRFSGSGSGTDFTLTISSLQPEDFATYYCQQDNSFPYTFGQGTKLEIKR
notes: OMNIMouse mAb; HC C33H250, LC C33L116 (same IDs as C33B902)
For B3, in the assay with Cyno CD33 full length, the “mean fluorescence intensity at 0.6 nM mAb” value was 117 MFI, the “mean fluorescence intensity at 6 nM mAb” value was found to be 135 MFI and the “mean fluorescence intensity at 60 nM mAb” value is 202 MFI. Also, in the assay with Human CD33 full length, the “mean fluorescence intensity at 0.6 nM mAb” value is 151 MFI, the “mean fluorescence intensity at 6 nM mAb” value was found to be 183 MFI and the “mean fluorescence intensity at 60 nM mAb” value came out at 214 MFI.

B4: C33B915 (antibody, V domains shown)
VH: EVQLVESGGGLVQPGRSLRLSCAASGFTFDDYAMHWVRQVPGEGLEWVSGISWNGGDMVYADSVKGRFTISRDNAKNSLYLQMNSLRPEDTALYYCVKDMPYFDFLTGSDYYYYGMDVWGQGTTVTVSS
VL: SYELTQPPSVSVSPGQTASITCSGDNLGNEHVCWYHQKPGQSPVLVIYQNNKRPSGIPERFSGSNSGNTATLSISGTQATDEADYYCQAWDSTTAVFGGGTKLTVLG
notes: OMNIMouse mAb; HC C33H255, LC C33L121 (same IDs as C33B907); also called C33F553
As for B4, in the assay with Cyno CD33 full length, the “mean fluorescence intensity at 0.6 nM mAb” value amounted to 36200 MFI, the “mean fluorescence intensity at 6 nM mAb” value turned out to be 35700 MFI and the “mean fluorescence intensity at 60 nM mAb” value is 37500 MFI. Moreover, in the assay with Human CD33 full length, the “mean fluorescence intensity at 0.6 nM mAb” value turned out to be 138000 MFI, the “mean fluorescence intensity at 6 nM mAb” value came out at 363000 MFI and the “mean fluorescence intensity at 60 nM mAb” value came to 390000 MFI.

B5: C3CB8 (bispecific antibody, human IgG4 S228P, lambda, F234A L235A)
heavy 1: not shown
light 1: SYELTQPPSVSVSPGQTASITCSGHKLGDKYACWYQQKPGQSPVVVIYKDSKRPSGIPERFSGSNFGNTATLTISGTQAMDEADYYCQAWDSSTVVFGGGTKLTVLGQPKAAPSVTLFPPSSEELQANKATLVCLISDFYPGAVTVAWKADSSPVKAGVETTTPSKQSNNKYAASSYLSLTPEQWKSHRSYSCQVTHEGSTVEKTVAPTECS
heavy 2: EVQLVESGGGLVQPGGSLRLSCAASGFTFNTYAMNWVRQAPGKGLEWVARIRSKYNNYATYYAASVKGRFTISRDDSKNSLYLQMNSLKTEDTAVYYCARHGNFGNSYVSWFAYWGQGTLVTVSSASTKGPSVFPLAPCSRSTSESTAALGCLVKDYFPEPVTVSWNSGALTSGVHTFPAVLQSSGLYSLSSVVTVPSSSLGTKTYTCNVDHKPSNTKVDKRVESKYGPPCPPCPAPEAAGGPSVFLFPPKPKDTLMISRTPEVTCVVVDVSQEDPEVQFNWYVDGVEVHNAKTKPREEQFNSTYRVVSVLTVLHQDWLNGKEYKCKVSNKGLPSSIEKTISKAKGQPREPQVYTLPPSQEEMTKNQVSLTCLVKGFYPSDIAVEWESNGQPENNYKTTPPVLDSDGSFLLYSKLTVDKSRWQEGNVFSCSVMHEALHNHYTQKSLSLSLGK
light 2: QTVVTQEPSLTVSPGGTVTLTCRSSTGAVTTSNYANWVQQKPGQAPRGLIGGTNKRAPGTPARFSGSLLGGKAALTLSGVQPEDEAEYYCALWYSNLWVFGGGTKLTVLGQPKAAPSVTLFPPSSEELQANKATLVCLISDFYPGAVTVAWKADSSPVKAGVETTTPSKQSNNKYAASSYLSLTPEQWKSHRSYSCQVTHEGSTVEKTVAPTECS
Take B5: in the assay with human CD33, the “Cytotoxicity EC50 (nM), T-cell mediated cytotoxicity of MOLM-13” value (shortened to “Cytotoxicity EC50 (nM)”) turned out to be 0.513 nM.

B6: C3CB14 (bispecific antibody, human IgG4 S228P, lambda, F234A L235A)
heavy 1: not shown
light 1: SYELTQPPSVSVSPGQTASITCSGDKLGNKYASWYQQKPGQSPVLVIYQDTKRPSGIPERVSGSNSGNTATLTISGTQAMDEADYHCQAWDSSTVVFGGGTKLTVLGQPKAAPSVTLFPPSSEELQANKATLVCLISDFYPGAVTVAWKADSSPVKAGVETTTPSKQSNNKYAASSYLSLTPEQWKSHRSYSCQVTHEGSTVEKTVAPTECS
heavy 2: EVQLVESGGGLVQPGGSLRLSCAASGFTFNTYAMNWVRQAPGKGLEWVARIRSKYNNYATYYAASVKGRFTISRDDSKNSLYLQMNSLKTEDTAVYYCARHGNFGNSYVSWFAYWGQGTLVTVSSASTKGPSVFPLAPCSRSTSESTAALGCLVKDYFPEPVTVSWNSGALTSGVHTFPAVLQSSGLYSLSSVVTVPSSSLGTKTYTCNVDHKPSNTKVDKRVESKYGPPCPPCPAPEAAGGPSVFLFPPKPKDTLMISRTPEVTCVVVDVSQEDPEVQFNWYVDGVEVHNAKTKPREEQFNSTYRVVSVLTVLHQDWLNGKEYKCKVSNKGLPSSIEKTISKAKGQPREPQVYTLPPSQEEMTKNQVSLTCLVKGFYPSDIAVEWESNGQPENNYKTTPPVLDSDGSFLLYSKLTVDKSRWQEGNVFSCSVMHEALHNHYTQKSLSLSLGK
light 2: QTVVTQEPSLTVSPGGTVTLTCRSSTGAVTTSNYANWVQQKPGQAPRGLIGGTNKRAPGTPARFSGSLLGGKAALTLSGVQPEDEAEYYCALWYSNLWVFGGGTKLTVLGQPKAAPSVTLFPPSSEELQANKATLVCLISDFYPGAVTVAWKADSSPVKAGVETTTPSKQSNNKYAASSYLSLTPEQWKSHRSYSCQVTHEGSTVEKTVAPTECS
For B6, the “Cytotoxicity EC50 (nM)” value in the assay with human CD33 was 0.538 nM.

B7: C3CB10 (bispecific antibody, human IgG4 S228P, lambda, F234A L235A)
heavy 1: not shown
light 1: SYELTQPPSVSVSPGQTASITCSGDKLGDKYACWYQQKPGQSPVVVIYQDRKRPSGIPERFSGSNFGNTATLTISGTQAMDEADYYCQAWDSSTVVFGGGTKLTVLGQPKAAPSVTLFPPSSEELQANKATLVCLISDFYPGAVTVAWKADSSPVKAGVETTTPSKQSNNKYAASSYLSLTPEQWKSHRSYSCQVTHEGSTVEKTVAPTECS
heavy 2: EVQLVESGGGLVQPGGSLRLSCAASGFTFNTYAMNWVRQAPGKGLEWVARIRSKYNNYATYYAASVKGRFTISRDDSKNSLYLQMNSLKTEDTAVYYCARHGNFGNSYVSWFAYWGQGTLVTVSSASTKGPSVFPLAPCSRSTSESTAALGCLVKDYFPEPVTVSWNSGALTSGVHTFPAVLQSSGLYSLSSVVTVPSSSLGTKTYTCNVDHKPSNTKVDKRVESKYGPPCPPCPAPEAAGGPSVFLFPPKPKDTLMISRTPEVTCVVVDVSQEDPEVQFNWYVDGVEVHNAKTKPREEQFNSTYRVVSVLTVLHQDWLNGKEYKCKVSNKGLPSSIEKTISKAKGQPREPQVYTLPPSQEEMTKNQVSLTCLVKGFYPSDIAVEWESNGQPENNYKTTPPVLDSDGSFLLYSKLTVDKSRWQEGNVFSCSVMHEALHNHYTQKSLSLSLGK
light 2: QTVVTQEPSLTVSPGGTVTLTCRSSTGAVTTSNYANWVQQKPGQAPRGLIGGTNKRAPGTPARFSGSLLGGKAALTLSGVQPEDEAEYYCALWYSNLWVFGGGTKLTVLGQPKAAPSVTLFPPSSEELQANKATLVCLISDFYPGAVTVAWKADSSPVKAGVETTTPSKQSNNKYAASSYLSLTPEQWKSHRSYSCQVTHEGSTVEKTVAPTECS
Turning to B7, the “Cytotoxicity EC50 (nM)” value with human CD33 amounted to 0.473 nM.

B8: C33B913 (antibody, V domains shown)
VH: EVQLLESGGGLVQPGGSLKLSCTASGFTFRSYAMSWVRQAPGKGLEWVSAINGYGDGRYYADSVKGRFTISRDNSKNTLYLQMNSLRAEDTAVYSCAKDQGFGELFFDYWGQGTLVTVSS
VL: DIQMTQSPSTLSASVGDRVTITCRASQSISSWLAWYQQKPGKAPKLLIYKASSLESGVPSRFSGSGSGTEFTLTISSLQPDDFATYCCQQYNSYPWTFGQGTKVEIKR
notes: OMNIMouse mAb; HC C33H253, LC C33L119 (same IDs as C33B905); also called C33F551
In the case of B8, in the assay with Cyno CD33 full length, the “mean fluorescence intensity at 0.6 nM mAb” value was 35200 MFI, the “mean fluorescence intensity at 6 nM mAb” value was determined as 36900 MFI and the “mean fluorescence intensity at 60 nM mAb” value amounted to 40700 MFI. In the assay with Human CD33 full length, the “mean fluorescence intensity at 0.6 nM mAb” value worked out at 205000 MFI, the “mean fluorescence intensity at 6 nM mAb” value stood at 409000 MFI and the “mean fluorescence intensity at 60 nM mAb” value came out at 519000 MFI.
